Measurements published in patent US20250019652A1, “PRODUCTION METHOD FOR SHEET-LIKE RETINAL TISSUE” (RIKEN, priority 2021, published 2025).

B1: BMP4: exogenous human recombinant BMP4, BMP signaling pathway agonist (protein, UniProt P12644 293-408, looked up)
Bone morphogenetic protein 4: SPKHHSQRARKKNKNCRRHSLYVDFSDVGWNDWIVAPPGYQAFYCHGDCPFPLADHLNSTNHAIVQTLVNSVNSSIPKACCVPTELSAISMLYLDEYDKVVLKNYQEMVVEGCGCR
B2: FGF4: fibroblast growth factor, FGF signaling pathway agonist (protein, UniProt P08620 31-206, looked up)
Fibroblast growth factor 4: APTAPNGTLEAELERRWESLVALSLARLPVAAQPKEAAVQSGAGDYLLGIKRLRRLYCNVGIGFHLQALPDGRIGGAHADTRDSLLELSPVERGVVSIFGVASRFFVAMSSKGKLYGSPFFTDECTFKEILLPNNYNAYESYKYPGMFIALSKNGKTKKGNRVSPTMKVTHFLPRL
B3: FGF8: fibroblast growth factor, FGF signaling pathway agonist (protein, UniProt P55075 23-233, looked up)
Fibroblast growth factor 8: QEGPGRGPALGRELASLFRAGREPQGVSQQHVREQSLVTDQLSRRLIRTYQLYSRTSGKHVQVLANKRINAMAEDGDPFAKLIVETDTFGSRVRVRGAETGLYICMNKKGKLIAKSNGKGKDCVFTEIVLENNYTALQNAKYEGWYMAFTRKGRPRKGSKTRQHQREVHFMKRLPRGHHTTEQSLRFEFLNYPPFTRSLRGSQRTWAPEPR

What was measured:
Format in all cases: cell-based, human
[1] = tested on: KhES-1 Rx::Venus aggregates; assay: Differentiation with or without BMP4: retinal tissue versus brain organoid (Example 23); settings: group supplemented with BMP4
Procedure: Human ES cells (KhES-1 strain (Non Patent Literature 3)) genetically engineered so as to have Rx::Venus reporter gene were cultured under feeder-free conditions in accordance with the method described in “Scientific Reports 4, 3594 (2014)”. As a feeder-free medium, StemFit medium (trade name: AK03N, manufactured by Ajinomoto Co., Inc.) was used, and as a scaffold in place of feeder cells, Laminin511-E8 (trade name, manufactured by Nippi, Inc.) was used. 300 nM SAG was added at the start of suspension culture (at the start of differentiation), and brain organoid was prepared on Day 3 from initiation of the suspension culture without adding BMP4. As a control, a group supplemented with BMP4 was established. Fluorescence microscope observation was performed as to the brain organoid of Day 26 from initiation of the suspension culture prepared in this way (FIG. 70). […] Further, these aggregates were fixed in 4% PFA. Sections were prepared and stained with DAPI and anti-FoxG1 antibody (Takara Bio Inc.), and observation was performed under a fluorescence microscope (BZ-X810 manufactured by Keyence Corp.). […] On the other hand, in the group that was not supplemented with BMP4, FoxG1 positive was confirmed, and it was confirmed that brain organoid was differentiated (FIG. 71).

[2] = tested on: Rx::Venus-sorted cells (KhES-1-derived NR, Day 25); assay: Search of factor that maintains property of retina at preparation into sheet again (Example 18); design: expression intensity of Rx::Venus, concentration dependency: dose or concentration left out as unconfirmed; settings: for expression intensity of Rx::Venus: compared with PBS control, 10 days after seeding
Procedure: (§1) The aggregates (NR) of Day 25 from initiation of the suspension culture prepared in Example 1 were washed with PBS, and a neuronal cell dispersion solution (manufactured by FUJIFILM Wako Pure Chemical Corp.) was added. After incubation at 37° C., they were dispersed into single cells by pipetting, and sorting was carried out with Rx::Venus as an index using Cell sorter ARIAII (Becton, Dickinson and Company).
3 days after seeding, the medium was similarly replaced so as to maintain the concentrations of the low-molecular compounds or the proteins described in Tables 1 and 2. […] 10 days after seeding, fixation was performed in 4% PFA, and the evaluation of the cells after sorting was conducted with Rx::Venus as an index under a fluorescence microscope (BZ-X810 manufactured by Keyence Corp.).

[3] = tested on: sorted or unsorted dispersed NR cells (KhES-1 Rx::Venus); assay: Aggregate reforming by addition of FGF8 and retinal differentiation, microscopy and FACS (Example 19)
Procedure: as §1, with “24” for “25”, “Company). The cells after sorting were seeded at 2.0 to 5.0×10^4 cells per well to a low adhesive V plate. As controls, a group that was not supplemented with FGF8 (FGF8−) and a group that was not sorted (unsorted) were also established.” for “Company).”
Medium replacement was carried out once every 3 to 4 days. FGF8 was also added at the time of medium replacement. […] RPE cells were partially observed in the sorted FGF8− group.
Further, the aggregates of Culture Day 54 for aggregate reforming (Day 30 after reseeding) were washed with PBS and dispersed into single cells using a neuronal cell dispersion solution (manufactured by FUJIFILM Wako Pure Chemical Corp.). Then, formaldehyde fixation was performed using Fixation buffer (Becton, Dickinson and Company). Thereafter, after washing with Perm/Wash buffer (Becton, Dickinson and Company), staining was performed with anti-CHX10-Alexa Fluor 647 conjugate antibody (Santa Cruz Biotechnology), anti-Sox2-BV421 antibody (BioLegend, Inc.), anti-Ki67-Alexa Fluor 647 conjugate antibody (Becton, Dickinson and Company), and anti-CRX-Alexa Fluor 647 conjugate antibody (Santa Cruz Biotechnology). After washing of the antibodies with Perm/Wash buffer (Becton, Dickinson and Company), measurement was performed using FACSCantoII (BD Biosciences), and analysis was conducted using FlowJo. As a control, neural retinal tissue having the same number of differentiation days that was not reorganized was also established.

[4] = tested on: CD39-sorted cells of Islet-1 KO KhES-1-derived aggregates (NR); assay: Islet-1 KO hESC-retina sheet prepared by sorting with CD39 and addition of FGF8 (Example 26); settings: 50 ng/mL FGF8; Day 73
Procedure: For aggregates differentiated with 300 nM SAG at the start of suspension culture (at the start of differentiation, dd0), the aggregates (NR) of Day 25 from initiation of the suspension culture were dispersed into single cells and stained at 37° C. for 15 minutes using anti-CD39-APC conjugate antibody (Miltenyi Biotec). Then, sorting was carried out with CD39-APC as an index using Cell sorter ARIAII (Becton, Dickinson and Company). The cells after sorting were seeded at 8.0×10^5 cells per well into 12-well Transwell coated with collagen gel. […] As a control, a group that was not supplemented with FGF8 (FGF8−) was also established.
Medium replacement was carried out once every 3 to 4 days. FGF8 was also added at the time of medium replacement.

[5] = tested on: Rx::Venus-sorted NR cells on Transwell (KhES-1-derived); assay: Effect of FGF8 at preparation into sheet again, microscopy and FACS (Example 20)
Procedure: as §1, with “24” for “25”, “Company). […] As a control, a group that was not supplemented with FGF8 (FGF8−) was also established.” for “Company).”
Medium replacement was carried out once every 3 to 4 days. FGF8 was also added at the time of medium replacement. Sheets after a lapse of differentiation for 63 days and 40 days after reseeding were observed under a fluorescence stereo microscope (FIGS. 60 and 61). For FACS analysis, the aggregates of Differentiation Day 64 and Day 41 after reseeding were washed with PBS and dispersed into single cells using a neuronal cell dispersion solution (manufactured by FUJIFILM Wako Pure Chemical Corp.). Then, formaldehyde fixation was performed using Fixation buffer (Becton, Dickinson and Company).
Thereafter, after fixation using Fixation buffer (Becton, Dickinson and Company) and washing with Perm/Wash buffer (Becton, Dickinson and Company), staining was performed with anti-CHX10-Alexa Fluor 647 conjugate antibody (Santa Cruz Biotechnology), anti-Sox2-BV421 conjugate antibody (BioLegend, Inc.), anti-Ki67 antibody (Becton, Dickinson and Company), and anti-CRX-Alexa Fluor 647 conjugate antibody (Santa Cruz Biotechnology). After washing of the antibodies with Perm/Wash buffer (Becton, Dickinson and Company), measurement was performed using FACSCantoII (BD Biosciences), and analysis was conducted using FlowJo. As a control, neural retinal tissue having the same number of differentiation days that was not reorganized was also established (FIG. 62).

[6] = sorted group supplemented with FGF8
[7] = versus neural retinal tissue not reorganized

| Molecule | FoxG1 staining [1] | differentiated tissue (Rx::Venus) ([1]; Day 26) | expression intensity of Rx::Venus [2] | percentage of Chx10-positive and Sox2-positive neural retinal progenitor cells [3, 6] | percentage of Crx-positive photoreceptor progenitor cells [3, 6] | RPE cells or Rx::Venus-negative masses ([3]; sorted, FGF8+, Day 10 after reseeding) | Rx::Venus positive rate (FACS) ([3]; unsorted group supplemented with FGF8, Day 30 after reseeding) | Rx::Venus-negative cell masses or RPE cells ([3]; unsorted, FGF8+, Day 10 after reseeding) | distribution of Crx::Venus cell populations in sheet [4] | expression intensity of Rx::Venus, concentration dependency ([2]; FGF8) | Rx::Venus positive rate (FACS) ([5]; group supplemented with FGF8, Day 41 after reseeding) [%] | black RPE in sheet ([5]; sheets supplemented with FGF8) | distribution of Rx::Venus-positive cells in sheet ([5]; sorted then supplemented with FGF8, 40 days after reseeding) | percentage of Chx10-positive and Sox2-positive neural retinal progenitor cells or Crx-positive photoreceptor progenitor cells [5, 7] | percentage of Rx::Venus-positive and Ki67-positive proliferative retinal cells [5, 7] |
| --- | --- | --- | --- | --- | --- | --- | --- | --- | --- | --- | --- | --- | --- | --- | --- |
| B1 | FoxG1 was negative | Rx::Venus-positive retinal tissue was observed to be differentiated |  |  |  |  |  |  |  |  |  |  |  |  |  |
| B2 |  |  | high expression intensity of Rx::Venus |  |  |  |  |  |  |  |  |  |  |  |  |
| B3 |  |  | high expression intensity of Rx::Venus | high | tended to be low | RPE cells or Rx::Venus-negative masses were not observed | the Rx::Venus positive rate tended to be high | these cell masses were observed to decrease | uniformly present | the highest expression intensity of Rx::Venus | ≥ 95 | hardly observed | Rx::Venus-positive cells were uniformly present in the whole wells | equivalent as compared with neural retinal tissue | tended to be large as compared with neural retinal tissue |
